Data taken from article PMC3459099.

Molecular target: ERp57-Cys57Ser–Cys406Ser double mutant (mutated ERp57) (human) (UniProt P30101)
Experiment: ELISA

Substance “recombinant N-terminal region of β-DG, β-DG(654–750), biotinylated (domain or fragment)” has a Kd of 10 µM.
